A short description of this series: soluble on expression in E. coli; label from the status in PepcDB or PDB records.
For “MTSYEEETDYRNVPRELLDNNIPMGRGMIKWAPFATLPEQFETIQQYIIDQNKITRPVLSDDQLAELNIRLHEALQYAQPVEVKFYNNGFVDSVRLTIYRIDAINYEIDGYVYNQQQRQKISIFDILDIVLLPLEHHHHHH”, the “soluble on expression in E. coli” value is “soluble”.

With “MTTAARRPAPTTAGAGWDAGVGALVNPSRRRGGTLRLVSSADVDSLDPARTYYVWVWLLQRLLNRTLMAYPTDPGPAGLVPAPDLAEGPGEVSDGGRTWTYRLRRGLRYDDGTPITSDDVRHAVQRVFAQDVLPGGPTYLIPLLDDPERPYPGPYRTDEPLRSVLTPDEHTIVFRLTRPFSDFDHLMAQPCAAPVPRRSDTGADYGRDPRSSGPYRVARHEPDTLLHLERNPHWDRATDPIRPALPDRVELTIGLDVDVLDARLIAGEFDINLEGRGLQHAAQRRATADEVLRSHTDNPRTSFLHFVAMQPHIPPFDNVHVRRAVQYAADKILLQDARGGPVNGGDLTTALFPPTLPAHQDLDLYPTGPDLRGDLDAARAELAAAGLPDGFRAVIGTQRGKFRLVADAVVESLARVGIELTVKELDVATYFSLGAGHPETVREHGLGLLVTDWGADFPTEYGFLAPLVDGRQIKRNGGNWNLPELDDPEVNALIDETLHTTDPAARAELWRAVERRVMEHAVLLPLVHDKTLHFRNPWVTNVYVHPAFGLYDIQAMGLAEED”, the “soluble on expression in E. coli” value is given as “soluble”.

On to “MTTDIRPLLVELFTEELPPKALQKLGQAFAEGVRATLARHHLLADGCAVEPFATPRRLAVRLSAVLAQAPEQAYAEKLMPVKVGLDANGQPTAALAKKLAAKGLEGLDPATLERESDGKQEYLVARGTAAGAQLAVGLQEGLDAAIDGLPIPKVMRYQLADGQTTVKFVRPAHGLVALFGADIVPIAALGLQAGRATQGHRFQSNGAIELATAQGYEADLAERGRVIASFEARRAEISRLLDEHAQRLGATLGDDPEVTALLDEVTALVEHPTVYVGQFEEQFLQVPQECLILTMRLNQKYFPLFDPASGKLTHRFLIVSNMQVADPANIVEGNQRVVRPRLADAQFFFETDRKTPLAARVEQLGSIVYHNKLSTQLERVERVRAIARGIATALGGDAAHCDRAALLAKADLGSNMVGEFPELQGIMGAYYAQGDGEPADVVTALRTQYRNRYDAPVDAATLTAATLFIAERIETLVGIWSIGLAPTGERDPFGLRRAALGLISAFEQLAAGGWLKVSEDGPLSLDGLLALAAQAFPDGKIGADTLAEVRAFIYERYRNQLIGEHDRNAVEAVIALAPPL”, for which the “soluble on expression in E. coli” value was “not soluble”. With “MTTIFKLLRLPKNTIFQVLRQFKCLDLIAFSVCSKYAKSCVMYSTTSNKQKTIRIEFDDTIQFDLSPITKHICLFELLADQRNVLRKNFNECEMIINGNNFIRTEWSIAGFAIKDWMKHFLDIFGGPKIDIISFSGKGFNRTWFPRDLFRIFNAQSFYCVIDFILKILRSFQYPESLTTCKGKSLGRKPLNTIFILNFKSVKYYGRHQFQLTLNQLLAMNISTLKLLDSAISSKNLNFFLKHWLNGSNKRLEVLEIFGLNAYSPTIIFKNVAYQVILEDEIFSIYNEVFTFGYEIERSCDETRAAIFINSMPEVSHYCFRMIVGEVPNYLIIY” the entry was “not soluble”. Next, “MTTILAFDIETVPDVQGIRTLYELPSSLPDDEVVLFAQQKRRAQTGGDFMQHHLHQVVAISCCMRWGQDKVHVGTIGEMDDGEEVVIAKFFELIEKHTPQLVSWNGGGFDLPVLHYRSLIYGINAARYWDMGDGDFGDSRDFKWNNYISRYHQRHCDLMDLLALYQPRANVPLDDMAKLCGFPGKLGMDGSKVWEAFHTGRLKEIRNYCETDAANTYLMYLRFCLVSGRLDADEYEMEIKRMRNYLSAQAGEKPHWEEFVRAWE”: “not soluble”. Next, “MTTLGTPVSLGRRTRTGRLELEFGVRHGQTALLRDLQKAPLMVVRPFRLPCGTLMVFIVNPTGGVLGGDHSEIHVEAGAGTRVLILTQSATRVQPSPGGEWATQELHFHVGVGARLEYYPERTLPFAGSRFRQHLRADLGAGAEFGLLETLASGRVQMGERLAWADYRSEVSVYAAQERVYLDRQHFRPGPHSRAPGVLGGNDYFASGVWVAGDSAAGRPAAESPTTAPGWASGLSAGGAVWARGVAATGPALDHAARQLREQVRHDLFGAAPLVLRRLEHHHHHH”: “not soluble”; “MTTRRLALFDLDHTLLPLDSDYQWADFLARTGRAGDPAEARRRNDDLMERYNRGELTAEQAAEFMLGLLAAHSPVELAAWHEEFMRDVIRPSLTAQAVDVVRGHLAAGDLCALVTATNSFVTAPIARAFGVQHLIATDPEYRDGRYTGRIEGTPSFREGKVVRVNQWLAGMGLALGDFAESYFYSDSVNDVPLLEAVTRPIAANPSPGLREIAQARGWQVIDLFDHLEDAKS”: “not soluble”; “MTTSHRPQLEARSGAKAAAYTPTGIEHARLLPGHTTLKYRKFKEEENLRANCAQEDRSNDKSLEEAVMNEEKQDVVGSGNLQETRSEKDQKDSLQELLVTQKNKVEDKAELEGNEQLKGGNSSRRSWRKGTAFGRHKVTKETNIKEHATKKSASGYINDMTKSEYHQEFLHKHVR”: “not soluble”. “MTTSTKLVELLYQLEAQLQKHELWQQTMPSPEALQSVEPFAIDTLDPHEWLQWIFIARMHALVESSQPLPRGFSIEPYFAEVWKQEPQYAELLNTIRTIDELCKLEHHHHHH”: the “soluble on expression in E. coli” value is on record as “not soluble”.

Consider “MTTTKANLTEFEQQLVDKAIGAMENAYCKYSNFKVGAALVCDDGEIIIGANHENASYGATICAERSAIVTALTKGHRKFKYIVVATELEAPCSPCGVCRQVLIEFGDYKVILGSSTSDQIIETTTYELLPYAFTPKSLDDHEKETEERKHHNDHNNKE”, for which the “soluble on expression in E. coli” value is given as “not soluble”. For “MTTTLSPDTARQIVPPEERYAAELAFLAAYDDGPRPPAWRLTPRAVVTFVMGSDGRALRLPEGAETPEGVPRRLTVEGKFVGDRSLVERCVVTLAGERGLLLVGEPGTAKSMLSELLSAAVCGTSGLVVQGTAGTTEDQLKYGWNYALLLAQGPSRTALVPSPVLTAMARGGIARVEEVTRCLPEVQDALVSLLSERRIAVPELSGTDDALAHAAPGFNLIATANLRDKGVSEMSAALKRRFNFETVGPIPDLDAETALVRSQARASVERAGAPFKVDEAVLEALVVAFRDLREGRSTEGWEVERPSTVMSTAEAVSVAGALGLAAAYFPGDRDVLGLLPGHLLGVVRKDDPADAARLRGYWDGPVRRRAEQGSATWRTLWDLRTVLEGLEHHHHHH”, the “soluble on expression in E. coli” value is given as “not soluble”. Next, “MTTTMSTLPVVLVDEILARVPITSLRSLRSTCKKWEASSKTNLVGGKATARKSSHVGFILIGDKICSMKLDLNGGDDFVDTSVNQVSAFDGFAISQLFHCDGLLFCISNNHYSNYTLMVCNMYLGETRLIQNRSLFESYQNFCSYAFGYDSSKNRNHKILRNNSVSGGYEIYSLKSDSWKDLNVDLEKSIHLWRLGSVSLKGNAYFRVIKVIEEGVWEYNLLCFDFTRESFGKLLSLPFESLGDEGEGIMVISCVRDDHLAVLYQRDTLGIWISTEIEPNKVSWREFLQVDLATLDGFPDVFIAGRFIVDEEKQVVVVFGQETELDLNHGNAFIFGRDGYFTSFTVGDAPPEDFTSYVPSLVSLQIDKTGKRKARDD”: “soluble”; “MTTVSEQANFTFSPEEVARFERDGYIGPVKIFEPEEMTRRWNIIRRQLLDRSLAIYPDSNGKANISNYDRHLDIDLLAEHIMRPEIVDRVGSLIGRNLLCWRSEFFPKYQGDEGTDWHQAATFAHATGKPQIIWPSDEGRPAFIGTITVWTAFTHSTEQNGCLQLMPGTHTSMNYDESKGMDYDADAINQREKDGIKRGFFGYDYRSLQKDPDWKPDESQAYPMVLKPGEAVIFWSNTMHASLPHTGSKTDYRMGFAARYVPTQVQVYPGTENLTEYGDGINLEKYGAVLTSGVDEYGHNRIARTSQRGYEFVPRQIPS”: “soluble”; “MTVDDIMVPRSEIIGIDINDDWKSILRQLSHSPHGRIVLYRDSLDDAISMLRVREAWRLMSEKKEFTKETMLRAADEIYFVPEGTPLSTQLVKFQRNKKKVGLVVNEYGDIQGLVTVEDILEEIVGDFTTSMSPTLAEEVTPQNDGSVIIDGTANVREINKAFNWHLPEDDARTVNGVILEALEEIPVAGTRVRIGKYDIDILDVQDNMIKQVKVFPVKPLRESVAE”: “not soluble”. Next, “MTVDTEKQQVVRPRNEIAAADCWDVSPLYPNREDWKADLDSFGLKTDGSPTWPELQATQYQLEDSESLLSLLTKLFSVERKLDKLYVYAHLVHDQDITNQEGVADLKSITHLHILFSEEISWIQPALIGLSEPIIAQHLSAPCLAPYRFYLEKIFRLSMHTGTPGEEKILASAFAPFEVASKAFSSLSDSEIPFGQAMDSEGNSHPLSHALASLYMQSTDRELRKTAYLAQCERYYNYRHTFANLLNGKIQAHLFYAKNKKYGSCLESALYHNNIPTTVYTNLMDIVKKNASLITKYYSLKQKALNIKDFHFYDVYAPLSQSEEKKYSYEEAVDLIYDSLSPLGTEYVDILKQGLTTEGWVDKYENLNKRSGAYSSGCYDSYPYILLNYTGTLYDVSVIAHEGGHSMHSYFSRKNQSFHDAQYPIFLAEIASTLNEMLLMDSMLKKSNSKEEKITILTRCLDTIFSTLFRQVLFASFEYEVHSAAEQGIPLTEEYLSSTYKNLQNDFYGGIITFDTLSNIEWARIPHFYYNFYVYQYATGIIAALCFAERILNKEDNALESYMNFLKSGGSDFPLEILKKSGLDMATSEPIYKAFSFIERKIQELSSLI”: “soluble”; “MTVIVGPKTKPPEAIKDASMARQKQMVNAHYDRLASAKERGEKVAATFVPGNLNELLMCFDMVNNLPEVNAIQNGLRRQSGGYVMEAEKLGHSEDVCTYVKSDIGMMAKGNIGPNGKPLPDPDVLLLSYTGCFTFMKWFELLRRQYKCETIMFQTPYLADGRITKDMISYMVKQLRQDVIPKLERISGVKFDIDRLREYLRKSAKAEDDHVWVLQSAKHKPSPIDAYFGGIYYIGPIFGAFRGTDDAIEYYKFLRAEVEQRIAQGKGPVTPDGDMGQERYRLVVEGPPNYTNFRQFWKMFYDEGAVVVASSYTKVGGTYDYGFRHDPDRPLESLAEYCLNVYTNRNLPMRVDMLENYINEYEADGLLINSIKSCNSFSAGQLLMMREVEKRTGKPAAFIETDLVDPRYFSAANVKNRLESYFQMIEQKRAGFRGAA”: “not soluble”; “MTVIYQTTITRIGASAIDALSDQMLITFREGAPADLEEYCFIHCHGELKGALHPGLQFSLGQHRYPVTAVGSVAEDNLRELGHVTLRFDGLNEAEFPGTVHVAGPVPDDIAPGSVLKFESVKE”: “not soluble”. Next, “MTVNDKKRLAIIGGGPGGLAAARVFSQSLPNFEIEIFVKDYDIGGVWHYPEQKSDGRVMYDHLETNISKKLMQFSGFPFEENVPLYPSRRNIWEYLKAYYKTFIANKDAISIHFSTEVTYLKKKNSQWEITSKDELRTTKSDFDFVIVASGHYSVPKLPTNIAGLDLWFDNKGAFHSKDFKNCEFAREKVVIVVGNGSSGQDIANQLTTVAKKVYNSIKEPASNQLKAKLIETVQTIDSADWKNRSVTLSDGRVLQNIDYIIFATGYYYSFPFIEPSVRLEVLGEGVTGDKHSSVNLHNLWEHMIYVKDPTLSFILTPQLVIPFPLSELQAAIMVEVFCKSLPITTTFDSNACGTHNFPKERTWNTMQNYRNY”: “soluble”; “MTVPPTATHQPWPGVIAAYRDRLPVGDDWTPVTLLEGGTPLIAATNLSKQTGCTIHLKVEGLNPTGSFKDRGMTMAVTDALAHGQRAVLCASTGNTSASAAAYAARAGITCAVLIPQGKIAMGKLAQAVMHGAKIIQIDGNFDDCLELARKMAADFPTISLVNSVNPVRIEGQKTAAFEIVDVLGTAPDVHALPVGNAGNITAYWKGYTEYHQLGLIDKLPRMLGTQAAGAAPLVLGEPVSHPETIATAIRIGSPASWTSAVEAQQQSKGRFLAASDEEILAAYHLVARVEGVFVEPASAASIAGLLKAIDDGWVARGSTVVCTVTGNGLKDPDTALKDMPSVSPVPVDPVAVVEKLGLA”: “soluble”.

The values above are taken from the DeepSol protein solubility set.
